From patent US20120214741A1 (BEN GURION UNIVERSITY OF THE NEGEV RESEARCH AND DEVELOPMENT …, published 2012)

T1: Rat brain HK-I (hexokinase-I), purified (rat, UniProt P05708 1-918)
T1 construct: Purified from rat brain; Used in the planar lipid bilayer and isolated-mitochondria assays
T1 sequence (looked up): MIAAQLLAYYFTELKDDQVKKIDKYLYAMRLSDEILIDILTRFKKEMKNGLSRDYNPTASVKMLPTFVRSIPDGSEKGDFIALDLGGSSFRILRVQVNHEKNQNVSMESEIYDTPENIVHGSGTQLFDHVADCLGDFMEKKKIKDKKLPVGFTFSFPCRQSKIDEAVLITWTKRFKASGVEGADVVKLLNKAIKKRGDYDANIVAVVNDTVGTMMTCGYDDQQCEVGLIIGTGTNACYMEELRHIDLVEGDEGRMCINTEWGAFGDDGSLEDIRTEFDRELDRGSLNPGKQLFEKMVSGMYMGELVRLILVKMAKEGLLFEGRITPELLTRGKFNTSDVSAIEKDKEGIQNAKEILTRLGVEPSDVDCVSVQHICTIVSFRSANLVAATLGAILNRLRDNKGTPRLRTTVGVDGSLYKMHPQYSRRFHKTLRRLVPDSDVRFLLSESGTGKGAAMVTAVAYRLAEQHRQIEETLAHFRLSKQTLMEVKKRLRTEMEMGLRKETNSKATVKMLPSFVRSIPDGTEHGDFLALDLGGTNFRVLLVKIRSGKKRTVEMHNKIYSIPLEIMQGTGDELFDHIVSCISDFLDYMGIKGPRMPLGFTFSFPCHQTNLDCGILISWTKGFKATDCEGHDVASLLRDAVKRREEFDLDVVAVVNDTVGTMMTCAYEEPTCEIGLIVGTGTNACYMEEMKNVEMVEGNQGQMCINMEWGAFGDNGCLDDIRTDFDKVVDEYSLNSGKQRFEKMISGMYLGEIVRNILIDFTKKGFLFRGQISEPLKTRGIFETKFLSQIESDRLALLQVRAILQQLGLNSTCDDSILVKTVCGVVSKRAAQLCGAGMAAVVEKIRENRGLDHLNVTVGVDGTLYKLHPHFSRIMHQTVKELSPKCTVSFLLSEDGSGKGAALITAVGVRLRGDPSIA

B1: native mVDAC1 (mouse VDAC1), purified recombinant (other)
chain: MAVPPTYADLGKSARDVFTKGYGFGLIKLDLKTKSENGLEFTSSGSANTETTKVNGSLETKYRWTEYGLTFTEKWNTDNTLGTEITVEDQLARGLKLTFDSSFSPNTGKKNAKIKTGYKREHINLGCDVDFDIAGPSIRGALVLGYEGWLAGYQMNFETSKSRVTQSNFAVGYKTDEFQLHTNVNDGTEFGGSIYQKVNKKLETAVNLAWTAGNSNTRFGIAAKYQVDPDACFSAKVNNSSLIGLGYTQTLKPGIKLTLSALLDGKNVNAGGHKLGLGLEFQA
notes: Extracted from mitochondria of yeast expressing mVDAC1, purified and reconstituted into a planar lipid bilayer; also called native VDAC1
B2: Peptide LP1 (VDAC1 loop 1 peptide) (peptide)
peptide: WTEYGLTFTEKWNTD
notes: No CPP or Trp zipper in these assays; also called LP1 peptide

Legend:
[1] = biological target: T1, Rat brain HK-I (hexokinase-I), purified; test: purified proteins, VDAC1 reconstituted into a planar lipid bilayer, channel recording
Experimental: Only PLBs with a resistance greater than 100 GΩ were used. Purified VDAC (about 1 ng) was added to the chamber defined as the cis side. […] Sigma Plot 2000 scientific software was used for data analyses. Experiments were performed at 23-25° C.

[2] = biological target: T1, Rat brain HK-I (hexokinase-I), purified; test: detachment of HK-I from rat brain mitochondria by the peptide (competition); HK-I activity in the supernatant

| Binder | binding result [1] | binding result [2] |
| --- | --- | --- |
| B1 | binds | – |
| B2 | – | binds |
